Columns and labels:
[1] = fluorescence lifetime imaging (TCSPC); in vitro, 4:1 Tau:heparin (Mr 3000), 24 h, 37 °C; K18*: 1 μM, 10% labelled with Alexa Fluor 488, in cell culture medium (3664 ± 25 ps before); hTau40*: 20 μM, 1% labelled, in BES buffer pH 7.4 (3657 ± 18 ps before); a drop of the lifetime reports …; conditions: other: fluorescence lifetime imaging (TCSPC)
[2] = fluorescence lifetime imaging (TCSPC); in vitro, pH 4.7, no heparin, 24 h; K18*: 1 μM, 10% labelled, cell culture medium (3824 ± 22 ps soluble); hTau40*: 10 μM, 1% labelled, BES buffer (3765 ± 53 ps soluble); conditions: other: fluorescence lifetime imaging (TCSPC)
[3] = molecular target: K18* (four-repeat construct K18 of human Tau with Cys-291 and Cys-322 replaced by alanine and Ile-260 replaced by cysteine) (human); assay: SDS-PAGE and Western blot of sequential detergent extracts; SH-SY5Y cells incubated 8 h with 1 μM K18*, trypsin-washed, lysed; Triton and sarkosyl fractions; NuPAGE 4-12% BisTris gel, anti-human Tau antibody A0024

| stoichiometry N [3] | Substance | fluorescence lifetime of the Alexa Fluor 488 label, aggregated with heparin [1] [ps when aggregated] | fluorescence lifetime of the Alexa Fluor 488 label, aggregated at pH 4.7 [2] [ps] |
| --- | --- | --- | --- |
| – | K18* (four-repeat construct K18 of human Tau with Cys-291 and Cys-322 replaced by alanine and Ile-260 replaced by cysteine) | 3262 ± 71 | 3268 ± 31 |
| 2 | K18* (four-repeat construct K18 of human Tau with Cys-291 and Cys-322 replaced by alanine and Ile-260 replaced by cysteine) (domain or fragment) | – | – |
